Source: PMC11574045, “A cofactor-induced repressive type of transcription factor condensation can be induced by synthetic peptides to suppress tumorigenesis” (The EMBO Journal, 2024)

B1: TRPS1 (protein, UniProt Q9UHF7 1-1281, looked up)
Zinc finger transcription …: MVRKKNPPLRNVASEGEGQILEPIGTESKVSGKNKEFSADQMSENTDQSDAAELNHKEEHSLHVQDPSSSSKKDLKSAVLSEKAGFNYESPSKGGNFPSFPHDEVTDRNMLAFSSPAAGGVCEPLKSPQRAEADDPQDMACTPSGDSLETKEDQKMSPKATEETGQAQSGQANCQGLSPVSVASKNPQVPSDGGVRLNKSKTDLLVNDNPDPAPLSPELQDFKCNICGYGYYGNDPTDLIKHFRKYHLGLHNRTRQDAELDSKILALHNMVQFSHSKDFQKVNRSVFSGVLQDINSSRPVLLNGTYDVQVTSGGTFIGIGRKTPDCQGNTKYFRCKFCNFTYMGNSSTELEQHFLQTHPNKIKASLPSSEVAKPSEKNSNKSIPALQSSDSGDLGKWQDKITVKAGDDTPVGYSVPIKPLDSSRQNGTEATSYYWCKFCSFSCESSSSLKLLEHYGKQHGAVQSGGLNPELNDKLSRGSVINQNDLAKSSEGETMTKTDKSSSGAKKKDFSSKGAEDNMVTSYNCQFCDFRYSKSHGPDVIVVGPLLRHYQQLHNIHKCTIKHCPFCPRGLCSPEKHLGEITYPFACRKSNCSHCALLLLHLSPGAAGSSRVKHQCHQCSFTTPDVDVLLFHYESVHESQASDVKQEANHLQGSDGQQSVKESKEHSCTKCDFITQVEEEISRHYRRAHSCYKCRQCSFTAADTQSLLEHFNTVHCQEQDITTANGEEDGHAISTIKEEPKIDFRVYNLLTPDSKMGEPVSESVVKREKLEEKDGLKEKVWTESSSDDLRNVTWRGADILRGSPSYTQASLGLLTPVSGTQEQTKTLRDSPNVEAAHLARPIYGLAVETKGFLQGAPAGGEKSGALPQQYPASGENKSKDESQSLLRRRRGSGVFCANCLTTKTSLWRKNANGGYVCNACGLYQKLHSTPRPLNIIKQNNGEQIIRRRTRKRLNPEALQAEQLNKQQRGSNEEQVNGSPLERRSEDHLTESHQREIPLPSLSKYEAQGSLTKSHSAQQPVLVSQTLDIHKRMQPLHIQIKSPQESTGDPGNSSSVSEGKGSSERGSPIEKYMRPAKHPNYSPPGSPIEKYQYPLFGLPFVHNDFQSEADWLRFWSKYKLSVPGNPHYLSHVPGLPNPCQNYVPYPTFNLPPHFSAVGSDNDIPLDLAIKHSRPGPTANGASKEKTKAPPNVKNEGPLNVVKTEKVDRSTQDELSTKCVHCGIVFLDEVMYALHMSCHGDSGPFQCSICQHLCTDKYDFTTHIQRGLHRNNAQVEKNGKPKE
B2: TRP63 (protein, UniProt Q9H3D4 1-680, looked up)
Tumor protein 63: MNFETSRCATLQYCPDPYIQRFVETPAHFSWKESYYRSTMSQSTQTNEFLSPEVFQHIWDFLEQPICSVQPIDLNFVDEPSEDGATNKIEISMDCIRMQDSDLSDPMWPQYTNLGLLNSMDQQIQNGSSSTSPYNTDHAQNSVTAPSPYAQPSSTFDALSPSPAIPSNTDYPGPHSFDVSFQQSSTAKSATWTYSTELKKLYCQIAKTCPIQIKVMTPPPQGAVIRAMPVYKKAEHVTEVVKRCPNHELSREFNEGQIAPPSHLIRVEGNSHAQYVEDPITGRQSVLVPYEPPQVGTEFTTVLYNFMCNSSCVGGMNRRPILIIVTLETRDGQVLGRRCFEARICACPGRDRKADEDSIRKQQVSDSTKNGDGTKRPFRQNTHGIQMTSIKKRRSPDDELLYLPVRGRETYEMLLKIKESLELMQYLPQHTIETYRQQQQQQHQHLLQKQTSIQSPSSYGNSSPPLNKMNSMNKLPSVSQLINPQQRNALTPTTIPDGMGANIPMMGTHMPMAGDMNGLSPTQALPPPLSMPSTSHCTPPPPYPTDCSIVSFLARLGCSSCLDYFTTQGLTTIYQIEHYSMDDLASLKIPEQFRHAIWKGILDHRQLHEFSSPSHLLRTPSSASTVSVGSSETRGERVIDAVRFTLRQTISFPPRDEWNDFNFDMDARRNKQQRIKEEGE
B3: BNC2 (protein, UniProt Q6ZN30 1-1099, looked up)
Zinc finger protein …: MAHLGPTPPPHSLNYKSEDRLSEQDWPAYFKVPCCGVDTSQIESEEAEVDVRERETQRDREPKRARDLTLRDSCTDNSMQFGTRTTTAEPGFMGTWQNADTNLLFRMSQQAIRCTLVNCTCECFQPGKINLRTCDQCKHGWVAHALDKLSTQHLYHPTQVEIVQSNVVFDISSLMLYGTQAVPVRLKILLDRLFSVLKQEEVLHILHGLGWTLRDYVRGYILQDAAGKVLDRWAIMSREEEIITLQQFLRFGETKSIVELMAIQEKEGQAVAVPSSKTDSDIRTFIESNNRTRSPSLLAHLENSNPSSIHHFENIPNSLAFLLPFQYINPVSAPLLGLPPNGLLLEQPGLRLREPSLSTQNEYNESSESEVSPTPYKNDQTPNRNALTSITNVEPKTEPACVSPIQNSAPVSDLTKTEHPKSSFRIHRMRRMGSASRKGRVFCNACGKTFYDKGTLKIHYNAVHLKIKHRCTIEGCNMVFSSLRSRNRHSANPNPRLHMPMLRNNRDKDLIRATSGAATPVIASTKSNLALTSPGRPPMGFTTPPLDPVLQNPLPSQLVFSGLKTVQPVPPFYRSLLTPGEMVSPPTSLPTSPIIPTSGTIEQHPPPPSEPVVPAVMMATHEPSADLAPKKKPRKSSMPVKIEKEIIDTADEFDDEDDDPNDGGAVVNDMSHDNHCHSQEEMSPGMSVKDFSKHNRTRCISRTEIRRADSMTSEDQEPERDYENESESSEPKLGEESMEGDEHIHSEVSEKVLMNSERPDENHSEPSHQDVIKVKEEFTDPTYDMFYMSQYGLYNGGGASMAALHESFTSSLNYGSPQKFSPEGDLCSSPDPKICYVCKKSFKSSYSVKLHYRNVHLKEMHVCTVAGCNAAFPSRRSRDRHSANINLHRKLLTKELDDMGLDSSQPSLSKDLRDEFLVKIYGAQHPMGLDVREDASSPAGTEDSHLNGYGRGMAEDYMVLDLSTTSSLQSSSSIHSSRESDAGSDEGILLDDIDGASDSGESAHKAEAPALPGSLGAEVSGSLMFSSLSGSNGGIMCNICHKMYSNKGTLRVHYKTVHLREMHKCKVPGCNMMFSSVRSRNRHSQNPNLHKNIPFTSVD
B4: TRIP4 (protein, UniProt Q15650 2-581, looked up)
Activating signal …: AVAGAVSGEPLVHWCTQQLRKTFGLDVSEEIIQYVLSIESAEEIREYVTDLLQGNEGKKGQFIEELITKWQKNDQELISDPLQQCFKKDEILDGQKSGDHLKRGRKKGRNRQEVPAFTEPDTTAEVKTPFDLAKAQENSNSVKKKTKFVNLYTREGQDRLAVLLPGRHPCDCLGQKHKLINNCLICGRIVCEQEGSGPCLFCGTLVCTHEEQDILQRDSNKSQKLLKKLMSGVENSGKVDISTKDLLPHQELRIKSGLEKAIKHKDKLLEFDRTSIRRTQVIDDESDYFASDSNQWLSKLERETLQKREEELRELRHASRLSKKVTIDFAGRKILEEENSLAEYHSRLDETIQAIANGTLNQPLTKLDRSSEEPLGVLVNPNMYQSPPQWVDHTGAASQKKAFRSSGFGLEFNSFQHQLRIQDQEFQEGFDGGWCLSVHQPWASLLVRGIKRVEGRSWYTPHRGRLWIAATAKKPSPQEVSELQATYRLLRGKDVEFPNDYPSGCLLGCVDLIDCLSQKQFKEQFPDISQESDSPFVFICKNPQEMVVKFPIKGNPKIWKLDSKIHQGAKKGLMKQNKAV
B5: TSC22D2 (protein, UniProt O75157 1-780, looked up)
TSC22 domain family protein 2: MSKMPAKKKSCFQITSVTTAQVATSITEDTESLDDPDESRTEDVSSEIFDVSRATDYGPEEVCERSSSEETLNNVGDAETPGTVSPNLLLDGQLAAAAAAPANGGGVVSARSVSGALASTLAAAATSAPAPGAPGGPQLAGSSAGPVTAAPSQPPTTCSSRFRVIKLDHGSGEPYRRGRWTCMEYYERDSDSSVLTRSGDCIRHSSTFDQTAERDSGLGATGGSVVVVVASMQGAHGPESGTDSSLTAVSQLPPSEKMSQPTPAQPQSFSVGQPQPPPPPVGGAVAQSSAPLPPFPGAATGPQPMMAAAQPSQPQGAGPGGQTLPPTNVTLAQPAMSLPPQPGPAVGAPAAQQPQQFAYPQPQIPPGHLLPVQPSGQSEYLQQHVAGLQPPSPAQPSSTGAAASPATAATLPVGTGQNASSVGAQLMGASSQPSEAMAPRTGPAQGGQVAPCQPTGVPPATVGGVVQPCLGPAGAGQPQSVPPPQMGGSGPLSAVPGGPHAVVPGVPNVPAAVPAPSVPSVSTTSVTMPNVPAPLAQSQQLSSHTPVSRSSSIIQHVGLPLAPGTHSAPTSLPQSDLSQFQTQTQPLVGQVDDTRRKSEPLPQPPLSLIAENKPVVKPPVADSLANPLQLTPMNSLATSVFSIAIPVDGDEDRNPSTAFYQAFHLNTLKESKSLWDSASGGGVVAIDNKIEQAMDLVKSHLMYAVREEVEVLKEQIKELVERNSLLERENALLKSLSSNDQLSQLPTQQANPGSTSQQQAVIAQPPQPTQPPQQPNVSSA
B6: TSG101 (protein, UniProt Q99816 2-390, looked up)
Tumor susceptibility gene 101 …: AVSESQLKKMVSKYKYRDLTVRETVNVITLYKDLKPVLDSYVFNDGSSRELMNLTGTIPVPYRGNTYNIPICLWLLDTYPYNPPICFVKPTSSMTIKTGKHVDANGKIYLPYLHEWKHPQSDLLGLIQVMIVVFGDEPPVFSRPISASYPPYQATGPPNTSYMPGMPGGISPYPSGYPPNPSGYPGCPYPPGGPYPATTSSQYPSQPPVTTVGPSRDGTISEDTIRASLISAVSDKLRWRMKEEMDRAQAELNALKRTEEDLKKGHQKLEEMVTRLDQEVAEVDKNIELLKKKDEELSSALEKMENQSENNDIDEVIIPTAPLYKQILNLYAEENAIEDTIFYLGEALRRGVIDLDVFLKHVRLLSRKQFQLRALMQKARKTAGLSDLY
B7: TRIM32 (protein, UniProt Q8CH72 1-655, looked up)
E3 ubiquitin-protein ligase …: MAAAAAASHLNLDALREVLECPICMESFTEEQLRPKLLHCGHTICRQCLEKLLASSINGVRCPFCSKITRITSLTQLTDNLTVLKIIDTAGLSEAVGLLMCRGCGRRLPRQFCRSCGVVLCEPCREADHQPPGHCTLPVKEAAEERRRDFGEKLTRLRELTGELQRRKAALEGVSRDLQARYKAVLQEYGHEERRIQEELARSRKFFTGSLAEVEKSNSQVVEEQSYLLNIAEVQAVSRCDYFLAKIKQADVALLEETADEEEPELTASLPRELTLQDVELLKVGHVGPLQIGQAVKKPRTVNMEDSWAGEEGAASSASASVTFREMDMSPEEVAPSPRASPAKQRSSEAASGIQQCLFLKKMGAKGSTPGMFNLPVSLYVTSQSEVLVADRGNYRIQVFNRKGFLKEIRRSPSGIDSFVLSFLGADLPNLTPLSVAMNCHGLIGVTDSYDNSLKVYTMDGHCVACHRSQLSKPWGITALPSGQFVVTDVEGGKLWCFTVDRGAGVVKYSCLCSAVRPKFVTCDAEGTVYFTQGLGLNVENRQNEHHLEGGFSIGSVGPDGQLGRQISHFFSENEDFRCIAGMCVDARGDLIVADSSRKEILHFPKGGGYSVLIREGLTCPVGIALTPKGQLLVLDCWDHCVKIYSYHLRRYSTP

Tested on: HEK293FT cells transfected with TF library
Assay: Screening of TF condensates based on fluorescent puncta
Format: cell-based
Conditions: Figure 1B numerical data; TF library screen, one value per transcriptional factor
Summary of the method: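 Cells were seeded onto plasmid/PEI-loaded wells (plasmid 1.6 μg/ml final) and grown 60 h. Medium with or without glucose followed for 12 h. Fixed, permeabilized cells were stained against Flag or GAL4 tags, and condensate puncta were quantified from 50 random fields per well.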

Molecule	Z score of condensed fraction
B1	-0.2124
B2	-0.7687
B3	-0.9038
B4	0.1966
B5	-1.109
B6	0.9844
B7	-0.9694
